Experimental data taken from patent publication US20230250154A1 (CYTONICS, published 2023).

T1: Cathepsin G (UniProt P08311 21-244)
T1 sequence (looked up): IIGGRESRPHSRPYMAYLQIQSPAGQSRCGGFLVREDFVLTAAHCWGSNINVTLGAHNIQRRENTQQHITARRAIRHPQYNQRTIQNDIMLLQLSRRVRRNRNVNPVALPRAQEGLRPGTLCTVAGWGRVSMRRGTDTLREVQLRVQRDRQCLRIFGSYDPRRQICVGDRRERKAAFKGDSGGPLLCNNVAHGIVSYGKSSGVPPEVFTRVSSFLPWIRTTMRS

T2: MMP2 (human, UniProt P08253 110-660, limits assumed)
T2 sequence (looked up): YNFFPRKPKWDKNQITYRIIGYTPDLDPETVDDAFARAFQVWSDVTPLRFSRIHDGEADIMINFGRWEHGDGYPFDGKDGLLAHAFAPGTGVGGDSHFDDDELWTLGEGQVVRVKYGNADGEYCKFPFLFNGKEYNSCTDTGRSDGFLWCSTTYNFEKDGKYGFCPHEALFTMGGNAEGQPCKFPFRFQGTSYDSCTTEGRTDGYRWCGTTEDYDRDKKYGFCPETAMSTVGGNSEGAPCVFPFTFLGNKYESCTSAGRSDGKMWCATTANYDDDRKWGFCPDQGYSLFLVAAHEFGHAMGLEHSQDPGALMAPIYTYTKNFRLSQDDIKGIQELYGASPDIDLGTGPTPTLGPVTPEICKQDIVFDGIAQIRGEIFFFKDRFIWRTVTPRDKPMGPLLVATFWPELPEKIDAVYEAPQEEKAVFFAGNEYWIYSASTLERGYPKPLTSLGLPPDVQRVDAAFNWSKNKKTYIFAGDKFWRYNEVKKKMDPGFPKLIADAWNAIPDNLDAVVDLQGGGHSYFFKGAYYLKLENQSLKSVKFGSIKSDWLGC

T3: ADAMTS5 (human, UniProt Q9UNA0 262-622, limits assumed)
T3 sequence (looked up): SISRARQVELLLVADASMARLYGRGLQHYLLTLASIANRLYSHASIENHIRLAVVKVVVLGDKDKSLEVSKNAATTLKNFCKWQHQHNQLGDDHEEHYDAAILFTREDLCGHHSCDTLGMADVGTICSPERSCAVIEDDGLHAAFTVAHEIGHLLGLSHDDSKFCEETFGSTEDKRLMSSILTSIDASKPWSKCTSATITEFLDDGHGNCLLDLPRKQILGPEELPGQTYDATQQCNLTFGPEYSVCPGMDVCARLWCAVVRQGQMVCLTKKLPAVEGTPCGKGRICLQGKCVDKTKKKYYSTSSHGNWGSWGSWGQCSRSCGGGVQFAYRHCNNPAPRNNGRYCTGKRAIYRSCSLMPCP

T4: ADAMTS4 (human, UniProt O75173 213-685, limits assumed)
T4 sequence (looked up): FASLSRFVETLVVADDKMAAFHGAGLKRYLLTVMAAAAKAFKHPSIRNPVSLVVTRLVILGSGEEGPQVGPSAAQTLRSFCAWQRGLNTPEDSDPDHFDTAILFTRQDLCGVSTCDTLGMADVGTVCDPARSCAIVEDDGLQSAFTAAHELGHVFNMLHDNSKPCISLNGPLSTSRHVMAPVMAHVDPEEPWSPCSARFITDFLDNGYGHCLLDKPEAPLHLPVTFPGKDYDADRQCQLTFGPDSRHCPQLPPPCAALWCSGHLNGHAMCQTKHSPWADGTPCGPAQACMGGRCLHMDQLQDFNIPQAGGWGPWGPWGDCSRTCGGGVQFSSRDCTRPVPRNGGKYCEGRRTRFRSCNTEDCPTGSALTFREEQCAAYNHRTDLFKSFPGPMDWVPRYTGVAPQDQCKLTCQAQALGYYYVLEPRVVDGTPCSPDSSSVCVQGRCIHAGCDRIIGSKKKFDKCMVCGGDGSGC

T5: MMP1 (human, UniProt P03956 100-469, limits assumed)
T5 sequence (looked up): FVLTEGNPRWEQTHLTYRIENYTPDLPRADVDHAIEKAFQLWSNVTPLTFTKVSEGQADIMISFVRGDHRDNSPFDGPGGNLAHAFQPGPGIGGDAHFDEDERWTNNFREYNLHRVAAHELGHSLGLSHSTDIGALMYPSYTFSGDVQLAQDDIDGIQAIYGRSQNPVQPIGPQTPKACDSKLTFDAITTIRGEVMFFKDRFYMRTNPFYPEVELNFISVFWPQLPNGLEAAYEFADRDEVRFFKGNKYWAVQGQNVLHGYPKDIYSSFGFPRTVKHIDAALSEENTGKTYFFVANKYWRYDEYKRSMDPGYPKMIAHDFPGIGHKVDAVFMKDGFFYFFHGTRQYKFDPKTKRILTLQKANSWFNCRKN


What was measured:
Assay in all cases: cell-based or functional assay
Elastase = target: Elastase
bovine trypsin = bovine trypsin (bovine, UniProt P00760 24-246)
chymotrypsin = target: chymotrypsin
Cathepsin G = target: T1, Cathepsin G
MMP2 = target: T2, MMP2
MMP12 = MMP12 (human, UniProt P39900 106-470, limits assumed)
MMP13 = MMP13 (human, UniProt P45452 104-471, limits assumed)
MMP3 = MMP3 (human, UniProt P08254 100-477, limits assumed)
ADAMTS5 = target: T3, ADAMTS5
MMP9 = MMP9 (human, UniProt P14780 107-707, limits assumed)
ADAMTS4 = target: T4, ADAMTS4
MMP8 = MMP8 (human, UniProt P22894 101-467, limits assumed)
MMP1 = target: T5, MMP1

Sequence of MMP12 (P39900 106-470 limits assumed): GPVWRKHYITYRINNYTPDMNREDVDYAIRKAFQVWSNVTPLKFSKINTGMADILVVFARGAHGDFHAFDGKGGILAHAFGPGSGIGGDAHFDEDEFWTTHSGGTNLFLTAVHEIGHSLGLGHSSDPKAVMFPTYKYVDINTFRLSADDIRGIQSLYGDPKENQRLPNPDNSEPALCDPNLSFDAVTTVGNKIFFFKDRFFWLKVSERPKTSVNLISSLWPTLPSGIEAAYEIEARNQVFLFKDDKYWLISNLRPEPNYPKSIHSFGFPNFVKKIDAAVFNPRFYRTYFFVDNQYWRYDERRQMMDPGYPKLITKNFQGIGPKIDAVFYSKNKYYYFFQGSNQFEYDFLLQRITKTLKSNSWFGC
Sequence of MMP9 (P14780 107-707 limits assumed): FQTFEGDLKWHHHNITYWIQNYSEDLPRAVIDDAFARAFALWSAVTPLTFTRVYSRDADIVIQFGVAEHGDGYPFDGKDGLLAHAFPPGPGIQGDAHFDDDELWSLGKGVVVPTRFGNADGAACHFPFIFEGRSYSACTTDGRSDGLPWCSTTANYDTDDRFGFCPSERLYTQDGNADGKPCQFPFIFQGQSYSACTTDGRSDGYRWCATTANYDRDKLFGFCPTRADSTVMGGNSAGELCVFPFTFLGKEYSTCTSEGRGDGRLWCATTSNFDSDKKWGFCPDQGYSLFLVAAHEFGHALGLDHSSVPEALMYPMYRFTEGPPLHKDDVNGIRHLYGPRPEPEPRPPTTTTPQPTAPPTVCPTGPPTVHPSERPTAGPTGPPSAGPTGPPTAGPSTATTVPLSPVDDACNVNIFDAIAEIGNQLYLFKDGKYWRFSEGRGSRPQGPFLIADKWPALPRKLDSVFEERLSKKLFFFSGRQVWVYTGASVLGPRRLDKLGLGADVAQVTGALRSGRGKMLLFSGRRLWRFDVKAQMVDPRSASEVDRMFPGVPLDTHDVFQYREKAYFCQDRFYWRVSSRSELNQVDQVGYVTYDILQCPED
Sequence of bovine trypsin (P00760 24-246): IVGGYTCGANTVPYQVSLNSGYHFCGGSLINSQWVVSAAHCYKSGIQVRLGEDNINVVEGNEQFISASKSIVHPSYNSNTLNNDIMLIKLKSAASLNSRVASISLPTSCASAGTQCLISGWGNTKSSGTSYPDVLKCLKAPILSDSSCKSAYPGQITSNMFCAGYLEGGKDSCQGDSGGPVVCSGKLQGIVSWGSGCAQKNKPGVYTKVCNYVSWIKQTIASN
Sequence of MMP8 (P22894 101-467 limits assumed): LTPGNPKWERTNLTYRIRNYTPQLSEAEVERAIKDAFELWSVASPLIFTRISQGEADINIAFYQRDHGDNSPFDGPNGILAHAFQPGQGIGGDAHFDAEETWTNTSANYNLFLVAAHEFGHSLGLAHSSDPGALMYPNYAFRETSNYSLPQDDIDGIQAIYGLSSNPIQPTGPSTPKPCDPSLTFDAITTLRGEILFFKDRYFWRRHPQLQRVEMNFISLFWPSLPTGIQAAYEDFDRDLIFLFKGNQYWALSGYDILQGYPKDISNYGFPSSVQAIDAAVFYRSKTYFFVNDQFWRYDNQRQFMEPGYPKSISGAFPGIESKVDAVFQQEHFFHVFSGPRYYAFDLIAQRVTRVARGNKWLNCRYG
Sequence of MMP3 (P08254 100-477 limits assumed): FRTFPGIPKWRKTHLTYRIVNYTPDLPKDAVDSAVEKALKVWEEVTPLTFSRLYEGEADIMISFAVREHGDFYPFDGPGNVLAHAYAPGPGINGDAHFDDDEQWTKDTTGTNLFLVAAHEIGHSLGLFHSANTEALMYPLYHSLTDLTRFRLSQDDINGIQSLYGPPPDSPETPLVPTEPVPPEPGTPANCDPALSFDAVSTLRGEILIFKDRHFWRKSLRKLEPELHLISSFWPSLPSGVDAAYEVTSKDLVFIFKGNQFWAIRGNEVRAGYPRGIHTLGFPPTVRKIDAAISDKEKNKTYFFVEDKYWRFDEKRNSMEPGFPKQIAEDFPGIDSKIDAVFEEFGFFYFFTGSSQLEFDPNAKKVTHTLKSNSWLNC

Protease Inhibition (% of WT) (Elastase)	Protease Inhibition (% of WT) (bovine trypsin)	Protease Inhibition (% of WT) (chymotrypsin)	Protease Inhibition (% of WT) (Cathepsin G)	Protease Inhibition (% of WT) (MMP2)	Protease Inhibition (% of WT) (MMP12)	Protease Inhibition (% of WT) (MMP13)	Protease Inhibition (% of WT) (MMP3)	Protease Inhibition (% of WT) (ADAMTS5)	Protease Inhibition (% of WT) (MMP9)	Protease Inhibition (% of WT) (ADAMTS4)	Protease Inhibition (% of WT) (MMP8)	Protease Inhibition (% of WT) (MMP1)	Binder
300 % of WT	20 % of WT	10 % of WT	437 % of WT	67 % of WT	136 % of WT	117 % of WT	100 % of WT	185 % of WT	500 % of WT	86 % of WT	161 % of WT	388 % of WT	Variant A2M, bait region SEQ ID NO 132 (other) SVSGKPQYMVLVPSLLHTETTEKGCVLLSYLNETVTVSASLESVRGNRSLFTDLEAENDVLHCVAFAVPKSSSNEEVMFLTVQVKGPTQEFKKRTTVMVKNEDSLVFVQTDKSIYKPGQTVKFRVVSMDENFHPLNELIPLVYIQDPKGNRIAQWQSFQLEGGLKQFSFPLSSEPFQGSYKVVVQKKSGGRTEHPFTVEEFVLPKFEVQVTVPKIITILEEEMNVSVCGLYTYGKPVPGHVTVSICRKYSDASDCHGEDSQAFCEKFSGQLNSHGCFYQQVKTKVFQLKRKEYEMKLHTEAQIQEEGTVVELTGRQSSEITRTITKLSFVKVDSHFRQGIPFFGQVRLVDGKGVPIPNKVIFIRGNEANYYSNATTDEHGLVQFSINTTNVMGTSLTVRVNYKDRSPCYGYQWVSEEHEEAHHTAYLVFSPSKSFVHLEPMSHELPCGHTQTVQAHYILNGGTLLGLKKLSFYYLIMAKGGIVRTGTHGLLVKQEDMKGHFSISIPVKSDIAPVARLLIYAVLPTGDVIGDSAKYDVENCLANKVDLSFSPSQSLPASHAHLRVTAAPQSVCALRAVDQSVLLMKPDAELSASSVYNLLPEKDLTGFPGPLNDQDDEDCINRHNVYINGITYTPVSSTNEKDMYSFLEDMGLKAFTNSKIRKPKMCPQLEQYEMHGPEGEGEGEGIPENFFGVSELEGRGSSEDLVVQIVEEPHTKLRKYFPETWIWDLVVVNSAGVAEVGVTVPDTITEWKAGAFCLSEDAGLGISSTASLRAFQPFFVELTMPYSVIRGEAFTLKATVLNYLPKCIRVSVQLEASPAFLAVPVEKEQAPHCICANGRQTVSWAVTPKSLGNVNFTVSAEALESQELCGTEVPSVPEHGRKDTVIKPLLVEPEGLEKETTFNSLLCPSGGEVSEELSLKLPPNVVEESARASVSVLGDILGSAMQNTQNLLQMPYGCGEQNMVLFAPNIYVLDYLNETQQLTPEIKSKAIGYLNTGYQRQLNYKHYDGSYSTFGERYGRNQGNTWLTAFVLKTFAQARAYIFIDEAHITQALIWLSQRQKDNGCFRSSGSLLNNAIKGGVEDEVTLSAYITIALLEIPLTVTHPVVRNALFCLESAWKTAQEGDHGSHVYTKALLAYAFALAGNQDKRKEVLKSLNEEAVKKDNSVHWERPQKPKAPVGHFYEPQAPSAEVEMTSYVLLAYLTAQPAPTSEDLTSATNIVKWITKQQNAQGGFSSTQDTVVALHALSKYGAATFTRTGKAAQVTIQSSGTFSSKFQVDNNNRLLLQQVSLPELPGEYSMKVTGEGCVYLQTSLKYNILPEKEEFPFALGVQTLPQTCDEPKAHTSFQISLSVSYTGSRSASNMAIVDVKMVSGFIPLKPTVKMLERSNHVSRTEVSSNHVLIYLDKVSNQTLSLFFTVLQDVPVRDLKPAIVKVYDYYETDEFAIAEYNAPCSKDLGNADYKDDDDKGASHHHHHH
102 % of WT	84 % of WT	25 % of WT	324 % of WT	118 % of WT	170 % of WT	131 % of WT	130 % of WT	205 % of WT	500 % of WT	82 % of WT	210 % of WT	327 % of WT	Variant A2M, bait region SEQ ID NO 127 (other) SVSGKPQYMVLVPSLLHTETTEKGCVLLSYLNETVTVSASLESVRGNRSLFTDLEAENDVLHCVAFAVPKSSSNEEVMFLTVQVKGPTQEFKKRTTVMVKNEDSLVFVQTDKSIYKPGQTVKFRVVSMDENFHPLNELIPLVYIQDPKGNRIAQWQSFQLEGGLKQFSFPLSSEPFQGSYKVVVQKKSGGRTEHPFTVEEFVLPKFEVQVTVPKIITILEEEMNVSVCGLYTYGKPVPGHVTVSICRKYSDASDCHGEDSQAFCEKFSGQLNSHGCFYQQVKTKVFQLKRKEYEMKLHTEAQIQEEGTVVELTGRQSSEITRTITKLSFVKVDSHFRQGIPFFGQVRLVDGKGVPIPNKVIFIRGNEANYYSNATTDEHGLVQFSINTTNVMGTSLTVRVNYKDRSPCYGYQWVSEEHEEAHHTAYLVFSPSKSFVHLEPMSHELPCGHTQTVQAHYILNGGTLLGLKKLSFYYLIMAKGGIVRTGTHGLLVKQEDMKGHFSISIPVKSDIAPVARLLIYAVLPTGDVIGDSAKYDVENCLANKVDLSFSPSQSLPASHAHLRVTAAPQSVCALRAVDQSVLLMKPDAELSASSVYNLLPEKDLTGFPGPLNDQDDEDCINRHNVYINGITYTPVSSTNEKDMYSFLEDMGLKAFTNSKIRKPKMCPQLEQYEMHGPIPENFFGVSELEGRGSEAIPMSIPTEGEGEGEGVEEPHTKLRKYFPETWIWDLVVVNSAGVAEVGVTVPDTITEWKAGAFCLSEDAGLGISSTASLRAFQPFFVELTMPYSVIRGEAFTLKATVLNYLPKCIRVSVQLEASPAFLAVPVEKEQAPHCICANGRQTVSWAVTPKSLGNVNFTVSAEALESQELCGTEVPSVPEHGRKDTVIKPLLVEPEGLEKETTFNSLLCPSGGEVSEELSLKLPPNVVEESARASVSVLGDILGSAMQNTQNLLQMPYGCGEQNMVLFAPNIYVLDYLNETQQLTPEIKSKAIGYLNTGYQRQLNYKHYDGSYSTFGERYGRNQGNTWLTAFVLKTFAQARAYIFIDEAHITQALIWLSQRQKDNGCFRSSGSLLNNAIKGGVEDEVTLSAYITIALLEIPLTVTHPVVRNALFCLESAWKTAQEGDHGSHVYTKALLAYAFALAGNQDKRKEVLKSLNEEAVKKDNSVHWERPQKPKAPVGHFYEPQAPSAEVEMTSYVLLAYLTAQPAPTSEDLTSATNIVKWITKQQNAQGGFSSTQDTVVALHALSKYGAATFTRTGKAAQVTIQSSGTFSSKFQVDNNNRLLLQQVSLPELPGEYSMKVTGEGCVYLQTSLKYNILPEKEEFPFALGVQTLPQTCDEPKAHTSFQISLSVSYTGSRSASNMAIVDVKMVSGFIPLKPTVKMLERSNHVSRTEVSSNHVLIYLDKVSNQTLSLFFTVLQDVPVRDLKPAIVKVYDYYETDEFAIAEYNAPCSKDLGNADYKDDDDKGASHHHHHH
